{
  "source": "patent US11572568B2",
  "about": "“Regulating alkaloids” (22nd Century Limited, LLC, priority 2006, dated 2023)",
  "molecules": {"B1": {"name": "Pig kidney diamine oxidase (Sus scrofa) (protein)", "chain": "ERSPRTPGGKAGVFADLSAQELKAVHSFLWSQKELKLEPSGTLTMAKNSVFLIEMLLPKKQHVLKFLDKGHRRPVREARAVIFFGAQEQPNVTEFAVGPLPTPRYMRDLPPRPGHQVSWASRPISKAEYALLSHKLQEATQPLRQFFRRTTGSSFGDCHEQCLTFTDVAPRGLASGQRRTWFILQRQMPGYFLHPTGLELLVDHGSTNAQDWTVEQVWYNGKFYRSPEELAQKYNDGEVDVVILEDPLAKGKDGESLPEPALFSFYQPRGDFAVTMHGPHVVQPQGPRYSLEGNRVMYGGWSFAFRLRSSSGLQILDVHFGGERIAYEVSVQEAVALYGGHTPAGMQTKYIDVGWGLGSVTHELAPDIDCPETATFLDALHHYDADGPVLYPRALCLFEMPTGVPLRRHFNSNFSGGFNFYAGLKGQVLVLRTTSTVYNYDYIWDFIFYPNGVMEAKMHATGYVHATFYTPEGLRYGTRLHTHLIGNMHTHLVNYRVDLDVAGTTNSFQTLQMELENITNPWSPRHRLVQPTLKQTRYSRERQAAFRFGQPLPKYLLITSPKENPWGHTRSYRLQLHSMADQVLPPGWQEERAVTWARYPLAVTRYRESELSSSSIYNQNDPWDPPVVFEEFLRNNENIEDEDLVAWVTVGFLHIPHSEDIPNTATPGNSVGFLLRPFNFFPEDPALASRDLVVVWPLENGSTYAQRWIPEEDQSCLKPPPFSYNGSYRPV"}},
  "key": {"Recombinant tobacco MPO1": {"biological_target": "T1, Recombinant tobacco MPO1 (Nicotiana tabacum, UniProt A0A1S4BDC4)", "T1 sequence (A0A1S4BDC4 1-790)": "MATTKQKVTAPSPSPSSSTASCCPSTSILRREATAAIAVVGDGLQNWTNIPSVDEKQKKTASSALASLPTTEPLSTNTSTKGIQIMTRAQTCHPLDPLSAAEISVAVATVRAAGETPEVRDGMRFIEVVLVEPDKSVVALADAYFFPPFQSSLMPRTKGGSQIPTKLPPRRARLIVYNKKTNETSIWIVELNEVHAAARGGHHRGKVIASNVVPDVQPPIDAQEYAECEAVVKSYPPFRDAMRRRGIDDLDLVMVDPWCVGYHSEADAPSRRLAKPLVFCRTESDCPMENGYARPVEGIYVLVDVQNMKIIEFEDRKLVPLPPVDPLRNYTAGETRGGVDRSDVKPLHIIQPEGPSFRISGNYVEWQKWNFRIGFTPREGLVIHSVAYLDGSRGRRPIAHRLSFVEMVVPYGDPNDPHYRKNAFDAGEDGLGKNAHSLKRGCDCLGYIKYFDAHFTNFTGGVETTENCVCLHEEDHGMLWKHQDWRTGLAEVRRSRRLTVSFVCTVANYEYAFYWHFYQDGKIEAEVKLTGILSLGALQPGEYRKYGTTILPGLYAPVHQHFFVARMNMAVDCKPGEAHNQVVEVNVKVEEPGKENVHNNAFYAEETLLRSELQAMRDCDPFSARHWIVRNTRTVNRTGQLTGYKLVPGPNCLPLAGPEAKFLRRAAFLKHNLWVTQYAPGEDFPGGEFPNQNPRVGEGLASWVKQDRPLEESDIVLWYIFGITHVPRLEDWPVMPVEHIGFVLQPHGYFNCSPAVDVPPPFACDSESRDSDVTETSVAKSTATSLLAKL", "settings": "for V/K: substrate of recombinant tobacco MPO1", "protocol": "The PCR product was first cloned into a pGEM-T Easy vector (Promega), then excised as the EcoRV-Not1 fragment, and finally cloned into the expression vector pGEX-6P (GE Healthcare). The resultant plasmid pGEX-MPO1 was introduced into the E. coli strain Rosetta (DE3) (Novagen). The recombinant bacteria were cultured in LB medium containing 50 μg/ml carbenicillin at 37° C. until the OD600 of the culture reached 0.4, IPTG and CuSO4 were added to the culture to the final concentrations of 0.1 mM and 4 mM, respectively, and the cultures were incubated at 16° C. for 16 h. Bacteria were harvested by centrifugation, suspended in a PBS buffer containing 10 mM DTT and 1 mg/ml lysozyme, incubated at 4° C. for 2 h, and then sonicated for 3 min. After centrifugation of the homogenate, the recombinant MPO1 protein fused to GST was purified from the supernatant by GSTrap HP (GE Healthcare) according to the manufacturer's protocol."}, "[1]": {"biological_target": "T2, Pig kidney diamine oxidase (Sus scrofa, UniProt Q9TRC7)", "T2 sequence (Q9TRC7 25-755)": "B1 chain", "settings": "in words", "method": "(§1) Purified diamine oxidase from pig kidney was purchased from Sigma. Enzyme activities were calculated by data analysis software, Kaleida Graph (HULINKS)."}, "NCCCCCN": {"system": "NCCCCCN", "assay": "purified protein, by the assay type", "settings": "other: substrate of recombinant tobacco MPO1 (GST fusion, purified from E. coli)", "method": "as §1"}, "NCCCN": {"system": "NCCCN", "assay": "purified protein, by the assay type", "settings": "other: substrate of recombinant tobacco MPO1 (GST fusion, purified from E. coli)", "method": "as §1"}, "[2]": {"substrate": "CNCCCCN", "assay": "purified protein, by the assay type", "settings": "other: substrate of purified pig kidney diamine oxidase (Sigma)", "method": "as §1"}, "[3]": {"substrate": "NCCCCCN", "assay": "purified protein, by the assay type", "settings": "other: substrate of purified pig kidney diamine oxidase (Sigma)", "method": "as §1"}, "[4]": {"substrate": "NCCCCN", "assay": "purified protein, by the assay type", "settings": "other: substrate of purified pig kidney diamine oxidase (Sigma)"}},
  "data": [
    {"molecule": "CNCCCN", "note": "[N-Methyl-1,3-diaminopropane]", "values": [
      {"measurement": "V/K", "setting": "Recombinant tobacco MPO1", "value": 13000}
    ]},
    {"molecule": "NCCCCN", "note": "[Putrescine]", "values": [
      {"measurement": "V/K", "setting": "Recombinant tobacco MPO1", "value": 3600},
      {"measurement": "substrate preference", "setting": "[1]", "value": "preferred putrescine over N-methylputrescine"}
    ]},
    {"molecule": "CCCCN", "note": "[n-Butylamine]", "values": [
      {"measurement": "Km", "setting": "Recombinant tobacco MPO1; substrate of recombinant tobacco MPO1 (GST fusion, purified from E. coli)", "value": "249 ± 180", "unit": "µM"}
    ]},
    {"molecule": "Recombinant tobacco MPO1 (Nicotiana tabacum)", "values": [
      {"measurement": "Km", "setting": "NCCCCCN", "value": "362 ± 320", "unit": "µM"},
      {"measurement": "Km", "setting": "NCCCN", "value": "158 ± 100", "unit": "µM"}
    ]},
    {"molecule": "B1", "values": [
      {"measurement": "Km", "setting": "[2]", "value": "657 ± 240", "unit": "µM"},
      {"measurement": "Km", "setting": "[3]", "value": "915 ± 420", "unit": "µM"},
      {"measurement": "Km", "setting": "[4]", "value": "228 ± 90", "unit": "µM"}
    ]}
  ]
}
